Data on six molecules can be found in patent publication US20160251419A1 (ROCKEFELLER UNIVERSITY, published 2016).

B1: monoclonal antibody 5c9.a2 (antibody, V domains shown)
VH: EVQLQESGPVLVKPGASVKMSCKASGYTFTDYYMNWVKQSHGKSLEWIGVINPYNGGTSYNQKFKGKATLTVDKSSSTAYMELNSLTSEDSAVYYCASLRRRTDYFDYWGQGTTLTVSS
VL: DIVMTQSHKFMSTSVGDRVSITCKASQDVGTAVAWYQQKPGQSPKLLIYWASTRHTGVPDRFTGSGSGTDFTLTISNVQSEDLADYFCQQYSSYPLTFGAGTKLELK
B2: monoclonal antibody 7b6.b12 (antibody, V domains shown)
VH: EVQLQESGAELVKPGASVKISCKVSGYTFTDHTIHWMKQRPEQGLEWIGYIYPRDGSTKYNEKFKGKATLTADKSSSTAYMQLNSLTSEDSAVYFCARPYDYAWFAYWGQGTLVTVSA
VL: DILLTQSPAILSVSPGERVSFSCRASQSIGTSIHWYQQRTNGSPRLLIKYASESISGIPSRFSGSGSGTDFTLSINSVESEDIADYYCQQSNSWPFTFGSGTKLEIK
notes: Mouse hybridoma mAb raised against NUCB1-capped hIAPP protofibrils; kappa light chain; also called mAb 7b6.b12
B3: monoclonal antibody 4b1.h9 (antibody, V domains shown)
VH: EVQLQESGPVLVKPGASVKMSCKASGYTFTDYYMNWVKQSHGKSLEWIGVINPYNGGTSYNQKFKGKATLTVDKSSSTAYMELNSLTSEDSAVYYCARRRGYAMDYWGQGTSVTVSS
VL: DIQMTQSPASLSASVGETVTITCRASENIYSYLAWYQQKQGKSPQLLVYNAKTLAEGVPSRFSGSGSGTQFSLKINSLQPEDFGSYYCQHHYGTPYTFGGGTNLEIK
B4: monoclonal antibody 5a8.b11 (antibody, V domains shown)
VH: EVQLQESGPELVKPGASVKIPCKASGYTFTDYNMDWVKQSHGKSLEWIGDINPNNGGTIYNQKFKGKATLTVDKSSSTAYMELRSLTSEDTAVYYCARKGERGFDYWGQGTTLTVSS
VL: ENVLTQSPAIMSASLGEKVTMSCRASSSVNYMYWYQQKSDASPKLWIYYTSNLAPGVPARFSGSGSGNSYSLTISSMEGEDAATYYCQQFTSSPSTFGAGTKLELK
B5: monoclonal antibody 3f2.e10 (antibody, V domains shown)
VH: EVQLQESGGGLVQPKGSLKLSCAASGFSFNTYAMNWVRQAPGKGLEWVARIRSKSNNYATYYADSVKDRFTISRDDSESMLYLQMNNLKTEDTAMYYCVRLGAMDYWGQGTSVTVSS
VL: DIVMTQSQKFMSTSVGDRVSVTCKASQNVGTNVAWYQQKPGQSPKALIYSASYRYSGVPDRFTGSGSGTDFTLTISNVQSEDLAEYFCQQYNSYPLTFGAGTKLEL
B6: monoclonal antibody 4a8.e11 (antibody, V domains shown)
VH: EVQLQESGGGLVKPGGSLKLSCAASGFTFSDYGMHWVRQAPEKGLEWVAYISSGSSTVYCADTVKGRFTISRDNAKNTLFLQMTSLRSEDTAMYYCARRWGYFDYWGQGTTLTVSS
VL: DIKMTQSPSSMYASLGERVTFTCKASQDINSFLSWFQQKPGKSPKTLIYRANRLVDGVPSRFSGSGSGQDYSLTITSLEFEDMGIYYCLQYDEFPYTFGGGTKLEIK
notes: Mouse hybridoma mAb raised against NUCB1-capped hIAPP protofibrils; kappa light chain; also called mAb 4a8.e11

T1 sequence (peptide, as listed by the source): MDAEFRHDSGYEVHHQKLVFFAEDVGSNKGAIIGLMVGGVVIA

One experiment deals with Recombinant Aβ1-42 (rAβ1-42 peptides) in the Thioflavin T fibril formation assay (UniProt P05067 672-713). As to the kind of experiment: cell-based or functional assay.
Sequence of Recombinant Aβ1-42 (rAβ1-42 peptides) in the Thioflavin T fibril formation assay (P05067 672-713 limits assumed): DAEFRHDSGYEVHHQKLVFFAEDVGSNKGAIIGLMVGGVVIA
With B1, the “T50 (time in minutes for 50% inhibition of fibril formation)” value amounted to 43.2 min.
Take B2: the “T50 (time in minutes for 50% inhibition of fibril formation)” value was found to be 40.2 min.
Still for that read-out and setting: the figure for B3 is 60.7 min; for B4 it is 40.3 min.
Still for that read-out and setting: then B5, with 42.6 min.
On the same count and under the same terms, the figure for B6 is 37.9 min.

Another experiment addresses T1, amyloid-β Aβ(M1-42) peptide, structures along the aggregation pathway (Aβ1-42 protofibrils).
T1 construct: Expressed in E. coli
As to the kind of experiment: dot blot of aggregation time points (FIG. 18). The text has this:
(A) Aβ₁₋₄₂ aggregation in a thioflavin T fluorescence assay guided sample collection (red circles) for a dot blot assay. (B) Samples from these time points were spotted on PVDF membranes and blotted with an anti-Aβ mAb to detect total Aβ₁₋₄₂, or with 4a8.e11, 3f2.e10, or 7b6.b12. (C) Bar graph showing quantitation of 4a8.e11 reactive material at indicated timepoints. (D) Bar graph showing quantitation of 3f2.e10 reactive material at indicated timepoints. (E) Bar graph showing quantitation of 7b6.b12 reactive material at indicated timepoints. The spots were quantified with ImageJ and normalized to total Aβ₁₋₄₂.
For kinetic experiments, aliquots of the purified Aβ42 were resuspended in 6M guanidinium hydrochloride and subjected to gel filtration on a Superdex Peptide column in 20 mM sodium phosphate buffer, pH 8, with 200 μM EDTA. The monomer-containing peak was then lyophilized and subjected to a second round of resuspension in 6M guanidinium hydrochloride and gel filtration on a Superdex Peptide column in 20 mM sodium phosphate buffer, pH 8, with 200 μM EDTA. […] Fluorescence measurements were made at regular intervals using FlexStation III (Molecular Devices) with excitation and emission at 440 and 480 nm, respectively. Each experimental point is the mean of the fluorescence signal of 6 wells containing aliquots of the same solution. […]
Consider B2, for which the binding result is on record as “binds”.
As to B6, the binding result is reported as “binds”.
